B1: FBXO3 (parent)
chain: DEEERRRRVFDVPIRRRRCSRLF
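Also: lentivirally expressed fusions sorted by FACS into six bins by GFP to DsRed ratio, PSI derived from sequencing read proportions per bin multiplied by bin number.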

The variants in the data set derive from B1. As to the kind of experiment: protein stability index of a GFP-peptide fusion (GPS, HEK-293T) (PSI 1-6); higher = more stable. Conditions: c terminus: native.
On to DECERRRRVFDVPIRRRRCSRLF [E3C], for which the protein stability index was 1.94.

Turning to DELERRRRVFDVPIRRRRCSRLF [E3L], the protein stability index turned out to be 1.48.

With DEQERRRRVFDVPIRRRRCSRLF [E3Q], the protein stability index turned out to be 2.57.

Take DIEERRRRVFDVPIRRRRCSRLF [E2I]: the protein stability index is 2.52.

As to DVEERRRRVFDVPIRRRRCSRLF [E2V], the protein stability index was found to be 1.95.

In the case of DQEERRRRVFDVPIRRRRCSRLF [E2Q], the protein stability index stood at 3.19.

As to DREERRRRVFDVPIRRRRCSRLF [E2R], the protein stability index worked out at 2.33.

In the case of DSEERRRRVFDVPIRRRRCSRLF [E2S], the protein stability index was determined as 2.21.

With DPEERRRRVFDVPIRRRRCSRLF [E2P], the protein stability index turned out to be 2.15.

Regarding DLEERRRRVFDVPIRRRRCSRLF [E2L], the protein stability index amounted to 1.45.

Regarding DWEERRRRVFDVPIRRRRCSRLF [E2W], the protein stability index amounted to 2.25.

On to DAEERRRRVFDVPIRRRRCSRLF [E2A], for which the protein stability index was determined as 1.49.

Turning to DTEERRRRVFDVPIRRRRCSRLF [E2T], the protein stability index turned out to be 1.65.

For the variant DGEERRRRVFDVPIRRRRCSRLF [E2G], the protein stability index came out at 2.58.

Regarding DNEERRRRVFDVPIRRRRCSRLF [E2N], the protein stability index came to 3.05.

For the variant DCEERRRRVFDVPIRRRRCSRLF [E2C], the protein stability index was 1.71.

On to DKEERRRRVFDVPIRRRRCSRLF [E2K], for which the protein stability index stood at 1.36.

Consider DDEERRRRVFDVPIRRRRCSRLF [E2D], for which the protein stability index came out at 3.08.

As for DHEERRRRVFDVPIRRRRCSRLF [E2H], the protein stability index amounted to 1.79.

On to DMEERRRRVFDVPIRRRRCSRLF [E2M], for which the protein stability index was determined as 1.9.

As to DFEERRRRVFDVPIRRRRCSRLF [E2F], the protein stability index stood at 1.97.

Consider DEEERNRRVFDVPIRRRRCSRLF [R6N], for which the protein stability index amounted to 3.87.

For the variant DEEERFRRVFDVPIRRRRCSRLF [R6F], the protein stability index was 1.35.

Take DEEERVRRVFDVPIRRRRCSRLF [R6V]: the protein stability index stood at 3.2.

DEEERARRVFDVPIRRRRCSRLF [R6A]: the protein stability index came out at 3.51.

For DEEERERRVFDVPIRRRRCSRLF [R6E], the protein stability index was 4.16.

For DEEERTRRVFDVPIRRRRCSRLF [R6T], the protein stability index is 3.66.

As to DEEERLRRVFDVPIRRRRCSRLF [R6L], the protein stability index was found to be 2.69.

Take DEEERHRRVFDVPIRRRRCSRLF [R6H]: the protein stability index amounted to 3.17.

Consider DEEERMRRVFDVPIRRRRCSRLF [R6M], for which the protein stability index amounted to 2.58.

As to DEEERWRRVFDVPIRRRRCSRLF [R6W], the protein stability index worked out at 1.56.

Turning to DEEERPRRVFDVPIRRRRCSRLF [R6P], the protein stability index turned out to be 3.79.

For DEEERYRRVFDVPIRRRRCSRLF [R6Y], the protein stability index worked out at 1.78.

For the variant DEEERQRRVFDVPIRRRRCSRLF [R6Q], the protein stability index came out at 3.79.

On to DEEERCRRVFDVPIRRRRCSRLF [R6C], for which the protein stability index came out at 2.83.

Turning to DEEERGRRVFDVPIRRRRCSRLF [R6G], the protein stability index is 4.09.

With DEEERDRRVFDVPIRRRRCSRLF [R6D], the protein stability index came to 4.26.

Consider DEEERSRRVFDVPIRRRRCSRLF [R6S], for which the protein stability index was 3.8.

As for DEEERKRRVFDVPIRRRRCSRLF [R6K], the protein stability index was 3.35.

As for DEEERIRRVFDVPIRRRRCSRLF [R6I], the protein stability index came to 2.36.

For DEEERRRRVFGVPIRRRRCSRLF [D11G], the protein stability index stood at 2.65.

DEEERRRRVFEVPIRRRRCSRLF [D11E]: the protein stability index came out at 2.68.

Turning to DEEERRRRVFAVPIRRRRCSRLF [D11A], the protein stability index amounted to 2.73.

In the case of DEEERRRRVFPVPIRRRRCSRLF [D11P], the protein stability index worked out at 3.34.

Consider DEEERRRRVFTVPIRRRRCSRLF [D11T], for which the protein stability index is 2.84.

Consider DEEERRRRVFKVPIRRRRCSRLF [D11K], for which the protein stability index is 2.51.

In the case of DEEERRRRVFRVPIRRRRCSRLF [D11R], the protein stability index was determined as 2.25.

In the case of DEEERRRRVFVVPIRRRRCSRLF [D11V], the protein stability index amounted to 1.99.

As to DEEERRRRVFFVPIRRRRCSRLF [D11F], the protein stability index came to 1.89.

For DEEERRRRVFQVPIRRRRCSRLF [D11Q], the protein stability index worked out at 2.4.

For DEEERRRRVFIVPIRRRRCSRLF [D11I], the protein stability index amounted to 2.93.

Take DEEERRRRVFCVPIRRRRCSRLF [D11C]: the protein stability index was determined as 1.53.

As for DEEERRRRVFLVPIRRRRCSRLF [D11L], the protein stability index was determined as 2.33.

As to DEEERRRRVFHVPIRRRRCSRLF [D11H], the protein stability index was determined as 2.19.

For DEEERRRRVFSVPIRRRRCSRLF [D11S], the protein stability index is 2.75.

Consider DEEERRRRVFYVPIRRRRCSRLF [D11Y], for which the protein stability index came out at 1.67.

Take DEEERRRRVFMVPIRRRRCSRLF [D11M]: the protein stability index stood at 2.08.

For the variant DEEERRRRVFNVPIRRRRCSRLF [D11N], the protein stability index was determined as 3.06.

DEEERRRRVFWVPIRRRRCSRLF [D11W]: the protein stability index amounted to 1.76.

For DEEERRREVFDVPIRRRRCSRLF [R8E], the protein stability index came to 3.64.

For the variant DEEERRRDVFDVPIRRRRCSRLF [R8D], the protein stability index worked out at 3.58.

Regarding DEEERRRAVFDVPIRRRRCSRLF [R8A], the protein stability index was found to be 3.74.

As for DEEERRRFVFDVPIRRRRCSRLF [R8F], the protein stability index came to 1.28.

Take DEEERRRKVFDVPIRRRRCSRLF [R8K]: the protein stability index is 2.87.

For DEEERRRCVFDVPIRRRRCSRLF [R8C], the protein stability index turned out to be 2.33.

For DEEERRRQVFDVPIRRRRCSRLF [R8Q], the protein stability index turned out to be 3.66.

As for DEEERRRYVFDVPIRRRRCSRLF [R8Y], the protein stability index stood at 1.95.

For the variant DEEERRRLVFDVPIRRRRCSRLF [R8L], the protein stability index worked out at 2.94.

Turning to DEEERRRPVFDVPIRRRRCSRLF [R8P], the protein stability index turned out to be 3.63.

DEEERRRMVFDVPIRRRRCSRLF [R8M]: the protein stability index is 2.89.

Consider DEEERRRIVFDVPIRRRRCSRLF [R8I], for which the protein stability index came to 2.88.

DEEERRRNVFDVPIRRRRCSRLF [R8N]: the protein stability index came out at 3.35.

DEEERRRHVFDVPIRRRRCSRLF [R8H]: the protein stability index amounted to 3.1.

Take DEEERRRVVFDVPIRRRRCSRLF [R8V]: the protein stability index stood at 3.66.

Take DEEERRRWVFDVPIRRRRCSRLF [R8W]: the protein stability index is 2.4.

DEEERRRTVFDVPIRRRRCSRLF [R8T]: the protein stability index came to 3.86.

Regarding DEEERRRGVFDVPIRRRRCSRLF [R8G], the protein stability index is 4.29.

For DEEERRRSVFDVPIRRRRCSRLF [R8S], the protein stability index worked out at 3.01.

Turning to DEEERRRREFDVPIRRRRCSRLF [V9E], the protein stability index is 4.03.

Regarding DEEERRRRRFDVPIRRRRCSRLF [V9R], the protein stability index was 2.71.

With DEEERRRRLFDVPIRRRRCSRLF [V9L], the protein stability index is 2.53.

Turning to DEEERRRRCFDVPIRRRRCSRLF [V9C], the protein stability index is 2.74.

As for DEEERRRRIFDVPIRRRRCSRLF [V9I], the protein stability index is 2.42.

Regarding DEEERRRRSFDVPIRRRRCSRLF [V9S], the protein stability index was 3.47.

On to DEEERRRRTFDVPIRRRRCSRLF [V9T], for which the protein stability index turned out to be 3.65.

As for DEEERRRRGFDVPIRRRRCSRLF [V9G], the protein stability index is 3.87.

As to DEEERRRRFFDVPIRRRRCSRLF [V9F], the protein stability index was determined as 2.19.

Take DEEERRRRHFDVPIRRRRCSRLF [V9H]: the protein stability index came to 3.54.

As to DEEERRRRMFDVPIRRRRCSRLF [V9M], the protein stability index stood at 2.47.

Consider DEEERRRRAFDVPIRRRRCSRLF [V9A], for which the protein stability index was determined as 3.43.

As for DEEERRRRKFDVPIRRRRCSRLF [V9K], the protein stability index was 3.72.

Turning to DEEERRRRYFDVPIRRRRCSRLF [V9Y], the protein stability index stood at 2.64.

For the variant DEEERRRRPFDVPIRRRRCSRLF [V9P], the protein stability index stood at 3.44.

In the case of DEEERRRRQFDVPIRRRRCSRLF [V9Q], the protein stability index was determined as 3.45.

As for DEEERRRRDFDVPIRRRRCSRLF [V9D], the protein stability index was found to be 4.46.

On to DEEERRRRNFDVPIRRRRCSRLF [V9N], for which the protein stability index is 3.75.

Turning to DEEERRRRWFDVPIRRRRCSRLF [V9W], the protein stability index stood at 2.94.

The values are drawn from the supplement of paper PMC10567573.
